Assay results from patent US20230277618A1 (BROAD INSTITUTE, published 2023).

Biological target: T1, KIDINS220 (kinase D interacting substrate 220), endogenous in HEK-293T cells (human, UniProt Q9ULH0 1-1771)
T1 construct: whole, on cells; Endogenous protein of the 293 cells, detected by immunoblot after co-immunoprecipitation; also called ARMS; SINO
Assay: co-immunoprecipitation by V5 tag from HEK-293T cells, immunoblot for endogenous KIDINS220

T1 sequence (Q9ULH0 whole entry): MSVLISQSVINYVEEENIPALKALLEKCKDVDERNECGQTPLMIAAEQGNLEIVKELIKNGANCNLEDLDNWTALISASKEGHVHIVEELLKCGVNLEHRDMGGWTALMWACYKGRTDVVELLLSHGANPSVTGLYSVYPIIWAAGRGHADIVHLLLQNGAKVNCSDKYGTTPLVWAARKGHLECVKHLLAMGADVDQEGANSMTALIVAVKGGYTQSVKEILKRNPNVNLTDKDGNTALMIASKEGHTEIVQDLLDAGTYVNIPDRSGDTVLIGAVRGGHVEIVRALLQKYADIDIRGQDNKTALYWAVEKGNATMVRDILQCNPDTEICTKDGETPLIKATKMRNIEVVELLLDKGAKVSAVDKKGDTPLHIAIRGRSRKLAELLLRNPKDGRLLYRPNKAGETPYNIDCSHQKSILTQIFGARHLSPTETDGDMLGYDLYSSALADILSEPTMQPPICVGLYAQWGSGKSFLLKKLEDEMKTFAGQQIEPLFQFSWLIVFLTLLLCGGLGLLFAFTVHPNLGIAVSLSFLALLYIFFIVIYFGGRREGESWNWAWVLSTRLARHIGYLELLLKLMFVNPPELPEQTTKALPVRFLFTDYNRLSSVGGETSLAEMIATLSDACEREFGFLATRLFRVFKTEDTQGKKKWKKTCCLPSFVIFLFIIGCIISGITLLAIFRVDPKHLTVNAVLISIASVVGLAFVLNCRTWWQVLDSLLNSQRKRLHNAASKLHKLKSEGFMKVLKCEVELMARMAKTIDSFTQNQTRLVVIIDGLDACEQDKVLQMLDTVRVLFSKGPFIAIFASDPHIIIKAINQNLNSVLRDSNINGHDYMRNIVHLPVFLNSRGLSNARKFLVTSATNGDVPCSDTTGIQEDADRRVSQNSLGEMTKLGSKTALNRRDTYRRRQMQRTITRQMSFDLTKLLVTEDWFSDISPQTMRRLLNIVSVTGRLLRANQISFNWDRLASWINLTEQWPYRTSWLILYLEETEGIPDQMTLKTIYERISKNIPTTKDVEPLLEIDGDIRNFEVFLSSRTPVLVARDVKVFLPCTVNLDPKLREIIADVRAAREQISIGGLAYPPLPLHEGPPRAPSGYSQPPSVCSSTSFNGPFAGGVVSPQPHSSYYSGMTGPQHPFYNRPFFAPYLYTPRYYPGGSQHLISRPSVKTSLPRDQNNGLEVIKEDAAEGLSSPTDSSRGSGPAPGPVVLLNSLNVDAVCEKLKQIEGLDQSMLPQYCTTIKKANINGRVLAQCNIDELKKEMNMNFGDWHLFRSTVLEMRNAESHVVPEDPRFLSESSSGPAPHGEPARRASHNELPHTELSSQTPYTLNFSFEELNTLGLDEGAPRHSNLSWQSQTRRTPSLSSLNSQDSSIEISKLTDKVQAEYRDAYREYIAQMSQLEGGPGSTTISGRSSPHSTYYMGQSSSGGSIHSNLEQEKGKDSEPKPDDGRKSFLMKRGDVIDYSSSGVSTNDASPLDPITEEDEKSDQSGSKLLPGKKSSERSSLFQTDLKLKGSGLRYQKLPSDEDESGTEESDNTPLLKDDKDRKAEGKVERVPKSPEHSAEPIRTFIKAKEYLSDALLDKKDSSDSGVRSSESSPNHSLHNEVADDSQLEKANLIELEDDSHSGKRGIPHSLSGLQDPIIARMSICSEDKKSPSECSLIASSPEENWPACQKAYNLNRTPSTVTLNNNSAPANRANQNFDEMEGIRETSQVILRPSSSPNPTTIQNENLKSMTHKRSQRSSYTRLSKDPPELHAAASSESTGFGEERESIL

B1: XPR1 SPX domain only construct with C-terminal V5 tag (other, human, UniProt Q9UBH6 1-224, looked up, not shown: small tags and cut ends)
chain: MKFAEHLSAHITPEWRKQYIQYEAFKDMLYSAQDQAPSVEVTDEDTVKRYFAKFEEKFFQTCEKELAKINTFYSEKLAEAQRRFATLQNELQSSLDAQKESTGVTTLRQRRKPVFHLSHEERVQHRNIKDLKLAFSEFYLSLILLQNYQNLNFTGFRKILKKHDKILETSRGADWRVAHVEVAPFYTCKKINQLISETEAVVTNELEDGDRQKAMKRLRVPPLG
notes: domain: SPX domain; also called SPX domain only constructs; N-terminal SPX domain of XPR1
  binding result: no binding
